Tests used:
rab8a_human RAB8A [1] = molecular target: rab8a_human RAB8A (UniProt P61006)
rab5a_human RAB5A = rab5a_human RAB5A (UniProt P20339)
rab8a_human RAB8A [2] = molecular target: rab8a_human RAB8A (UniProt P61006); remark: listed apart in the source
rab8a_human RAB8A [3] = molecular target: rab8a_human RAB8A (UniProt P61006); remark: listed apart in the source
rab1b_human RAB1B = rab1b_human RAB1B (UniProt Q9H0U4)
rab6a_human RAB6A = rab6a_human RAB6A (UniProt P20340)
Chain of rab6a_human RAB6A (P20340 whole entry, looked up): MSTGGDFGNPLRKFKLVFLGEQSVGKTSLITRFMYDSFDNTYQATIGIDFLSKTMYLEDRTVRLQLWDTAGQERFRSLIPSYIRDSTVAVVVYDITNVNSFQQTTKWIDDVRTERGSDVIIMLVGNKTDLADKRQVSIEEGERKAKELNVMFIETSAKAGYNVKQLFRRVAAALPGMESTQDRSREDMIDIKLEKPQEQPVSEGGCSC

Chain of rab8a_human RAB8A (P61006 whole entry): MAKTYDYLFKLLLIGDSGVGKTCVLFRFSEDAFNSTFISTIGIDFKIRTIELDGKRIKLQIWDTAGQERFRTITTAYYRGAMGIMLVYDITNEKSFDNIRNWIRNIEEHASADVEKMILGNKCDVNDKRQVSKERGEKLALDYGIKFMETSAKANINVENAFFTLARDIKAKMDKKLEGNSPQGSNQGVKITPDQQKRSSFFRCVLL
Chain of Inositol polyphosphate 5-phosphatase OCRL (Homo sapiens), Q01968 F668V (Q01968 whole entry F668V): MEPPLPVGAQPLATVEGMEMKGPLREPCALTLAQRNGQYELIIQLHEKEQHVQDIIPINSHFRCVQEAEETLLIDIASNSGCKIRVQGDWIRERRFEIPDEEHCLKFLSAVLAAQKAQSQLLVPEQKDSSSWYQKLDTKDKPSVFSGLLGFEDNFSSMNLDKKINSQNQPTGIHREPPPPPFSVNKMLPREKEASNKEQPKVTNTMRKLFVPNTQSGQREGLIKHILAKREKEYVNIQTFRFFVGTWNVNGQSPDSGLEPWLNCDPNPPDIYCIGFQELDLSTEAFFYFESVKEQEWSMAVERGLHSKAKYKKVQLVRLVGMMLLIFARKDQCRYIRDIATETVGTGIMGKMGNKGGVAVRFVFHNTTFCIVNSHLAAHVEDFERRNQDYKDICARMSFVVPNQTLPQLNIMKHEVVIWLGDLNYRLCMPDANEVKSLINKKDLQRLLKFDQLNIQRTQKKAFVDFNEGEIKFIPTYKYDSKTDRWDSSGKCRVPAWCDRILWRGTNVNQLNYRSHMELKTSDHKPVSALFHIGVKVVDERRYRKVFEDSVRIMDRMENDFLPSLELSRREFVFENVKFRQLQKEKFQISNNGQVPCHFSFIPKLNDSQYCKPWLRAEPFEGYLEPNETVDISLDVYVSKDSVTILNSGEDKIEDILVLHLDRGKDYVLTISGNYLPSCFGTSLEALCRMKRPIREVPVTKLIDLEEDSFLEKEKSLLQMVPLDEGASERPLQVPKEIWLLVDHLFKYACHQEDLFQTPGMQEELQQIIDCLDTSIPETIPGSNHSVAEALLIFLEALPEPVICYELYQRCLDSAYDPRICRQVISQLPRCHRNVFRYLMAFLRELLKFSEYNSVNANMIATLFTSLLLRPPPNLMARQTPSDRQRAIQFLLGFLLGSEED
Chain of Inositol polyphosphate 5-phosphatase OCRL (Homo sapiens), Q01968 F668A (Q01968 whole entry F668A): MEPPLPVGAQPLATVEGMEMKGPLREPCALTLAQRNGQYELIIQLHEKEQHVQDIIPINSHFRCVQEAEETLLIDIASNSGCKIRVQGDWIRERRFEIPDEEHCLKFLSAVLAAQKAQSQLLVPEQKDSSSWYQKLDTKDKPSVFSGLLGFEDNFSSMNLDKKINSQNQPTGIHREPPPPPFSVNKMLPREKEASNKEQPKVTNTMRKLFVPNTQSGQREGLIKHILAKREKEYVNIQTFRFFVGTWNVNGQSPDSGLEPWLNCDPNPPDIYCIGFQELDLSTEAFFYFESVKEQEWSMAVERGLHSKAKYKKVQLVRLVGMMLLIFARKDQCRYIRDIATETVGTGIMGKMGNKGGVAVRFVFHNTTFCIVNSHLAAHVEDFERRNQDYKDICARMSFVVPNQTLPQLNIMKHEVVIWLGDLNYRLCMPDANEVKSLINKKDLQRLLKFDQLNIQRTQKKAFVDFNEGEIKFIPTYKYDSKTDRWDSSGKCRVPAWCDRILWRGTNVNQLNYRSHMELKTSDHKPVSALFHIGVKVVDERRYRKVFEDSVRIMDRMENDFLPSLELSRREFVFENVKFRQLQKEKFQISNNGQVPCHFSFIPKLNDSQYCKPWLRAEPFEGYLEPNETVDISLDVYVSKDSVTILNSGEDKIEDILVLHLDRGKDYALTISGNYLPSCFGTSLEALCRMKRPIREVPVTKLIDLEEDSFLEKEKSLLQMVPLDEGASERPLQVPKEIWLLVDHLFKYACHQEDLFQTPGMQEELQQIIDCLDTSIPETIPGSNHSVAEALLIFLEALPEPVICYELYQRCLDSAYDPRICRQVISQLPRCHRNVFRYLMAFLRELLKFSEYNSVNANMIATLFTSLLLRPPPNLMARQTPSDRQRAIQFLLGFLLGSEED
Chain of rab1b_human RAB1B (Q9H0U4 whole entry): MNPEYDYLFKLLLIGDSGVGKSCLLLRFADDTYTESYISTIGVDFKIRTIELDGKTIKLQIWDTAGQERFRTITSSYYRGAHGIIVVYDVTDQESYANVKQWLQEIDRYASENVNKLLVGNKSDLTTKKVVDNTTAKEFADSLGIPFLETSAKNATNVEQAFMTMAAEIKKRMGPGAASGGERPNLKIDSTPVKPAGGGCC
Chain of rab5a_human RAB5A (P20339 whole entry): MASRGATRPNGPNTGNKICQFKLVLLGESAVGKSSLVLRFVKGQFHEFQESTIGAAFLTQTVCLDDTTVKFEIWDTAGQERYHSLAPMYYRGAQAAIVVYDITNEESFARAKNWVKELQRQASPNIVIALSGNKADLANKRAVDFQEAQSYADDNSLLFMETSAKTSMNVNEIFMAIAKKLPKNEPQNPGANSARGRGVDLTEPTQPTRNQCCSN

Substance | effect of a mutation on the interaction (rab8a_human RAB8A [1]) | effect of a mutation on the interaction (rab5a_human RAB5A) | effect of a mutation on the interaction (rab8a_human RAB8A [2]) | effect of a mutation on the interaction (rab8a_human RAB8A [3]) | effect of a mutation on the interaction (rab1b_human RAB1B) | effect of a mutation on the interaction (rab6a_human RAB6A)
Inositol polyphosphate 5-phosphatase OCRL (Homo sapiens), Q01968 F668A | decreasing interaction | disrupting interaction |  |  |  | 
Inositol polyphosphate 5-phosphatase OCRL (Homo sapiens), Q01968 F668V |  |  | decreasing interaction | disrupting interaction | disrupting interaction | disrupting interaction
